The values that follow come from patent publication US20040106545A1 (MCGILL UNIVERSITY, published 2004).

Where two headings read alike, the source gives them in different places. Positions of bridges follow the written chain, without caps; N, C: chain ends.

Common to all, as to experiment: cell-based or functional assay
The target in assay [1] is T1, chick N-cadherin expressed on transfected 3T3 cells (chick, UniProt P10288 165-912).
T1 sequence (looked up): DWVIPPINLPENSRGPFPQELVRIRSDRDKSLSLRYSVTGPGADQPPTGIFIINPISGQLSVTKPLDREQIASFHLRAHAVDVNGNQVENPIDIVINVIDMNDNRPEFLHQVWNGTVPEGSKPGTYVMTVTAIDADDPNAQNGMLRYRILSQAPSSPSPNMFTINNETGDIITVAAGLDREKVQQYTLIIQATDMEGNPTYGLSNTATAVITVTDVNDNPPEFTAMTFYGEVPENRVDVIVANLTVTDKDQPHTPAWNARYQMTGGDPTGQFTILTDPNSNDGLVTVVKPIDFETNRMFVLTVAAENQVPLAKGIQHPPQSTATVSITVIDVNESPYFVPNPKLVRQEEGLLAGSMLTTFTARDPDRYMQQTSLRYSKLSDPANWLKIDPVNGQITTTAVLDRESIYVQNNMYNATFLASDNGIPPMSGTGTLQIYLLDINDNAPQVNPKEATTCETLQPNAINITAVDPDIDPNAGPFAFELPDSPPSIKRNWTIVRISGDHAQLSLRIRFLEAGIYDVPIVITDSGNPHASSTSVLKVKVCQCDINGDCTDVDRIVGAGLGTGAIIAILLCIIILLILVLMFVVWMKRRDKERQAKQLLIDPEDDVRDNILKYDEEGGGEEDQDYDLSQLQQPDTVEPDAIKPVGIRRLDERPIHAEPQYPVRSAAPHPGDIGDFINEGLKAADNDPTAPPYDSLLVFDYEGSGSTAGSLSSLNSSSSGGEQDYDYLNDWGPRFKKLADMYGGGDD

The target of assay [2] is T2, E-cadherin on Madin Darby canine kidney (MDCK) cells (canine (MDCK cells), UniProt F1PAA9 157-885).
T2 sequence (looked up): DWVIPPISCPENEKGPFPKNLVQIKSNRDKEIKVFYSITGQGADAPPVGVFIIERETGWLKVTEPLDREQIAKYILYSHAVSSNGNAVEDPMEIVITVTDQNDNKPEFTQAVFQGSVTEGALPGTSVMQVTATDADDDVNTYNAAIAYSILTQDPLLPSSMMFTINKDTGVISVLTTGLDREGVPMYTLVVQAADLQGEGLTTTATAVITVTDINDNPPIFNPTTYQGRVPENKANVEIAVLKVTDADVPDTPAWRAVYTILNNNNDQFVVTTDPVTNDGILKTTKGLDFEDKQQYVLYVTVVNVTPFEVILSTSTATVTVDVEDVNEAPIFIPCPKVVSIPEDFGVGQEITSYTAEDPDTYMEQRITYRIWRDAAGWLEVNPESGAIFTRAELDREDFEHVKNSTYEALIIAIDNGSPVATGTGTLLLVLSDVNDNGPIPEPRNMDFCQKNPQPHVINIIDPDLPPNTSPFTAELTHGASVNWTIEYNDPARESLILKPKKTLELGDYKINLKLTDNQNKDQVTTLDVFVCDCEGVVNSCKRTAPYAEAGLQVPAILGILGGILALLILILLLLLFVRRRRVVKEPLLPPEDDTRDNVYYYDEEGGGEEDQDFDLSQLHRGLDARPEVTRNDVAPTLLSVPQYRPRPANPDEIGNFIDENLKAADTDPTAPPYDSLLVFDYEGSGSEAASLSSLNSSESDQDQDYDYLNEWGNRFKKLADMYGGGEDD

The target of assay [3] is T2, E-cadherin on Madin Darby canine kidney …. This is another data set of the same source.
In assay [4] the target is T1, chick N-cadherin expressed on …. This is another data set of the same source.
Assay [5] deals with human L1 expressed on transfected 3T3 cells (human, UniProt P32004 20-1257).
human L1 expressed on transfected 3T3 cells, sequence (P32004 20-1257): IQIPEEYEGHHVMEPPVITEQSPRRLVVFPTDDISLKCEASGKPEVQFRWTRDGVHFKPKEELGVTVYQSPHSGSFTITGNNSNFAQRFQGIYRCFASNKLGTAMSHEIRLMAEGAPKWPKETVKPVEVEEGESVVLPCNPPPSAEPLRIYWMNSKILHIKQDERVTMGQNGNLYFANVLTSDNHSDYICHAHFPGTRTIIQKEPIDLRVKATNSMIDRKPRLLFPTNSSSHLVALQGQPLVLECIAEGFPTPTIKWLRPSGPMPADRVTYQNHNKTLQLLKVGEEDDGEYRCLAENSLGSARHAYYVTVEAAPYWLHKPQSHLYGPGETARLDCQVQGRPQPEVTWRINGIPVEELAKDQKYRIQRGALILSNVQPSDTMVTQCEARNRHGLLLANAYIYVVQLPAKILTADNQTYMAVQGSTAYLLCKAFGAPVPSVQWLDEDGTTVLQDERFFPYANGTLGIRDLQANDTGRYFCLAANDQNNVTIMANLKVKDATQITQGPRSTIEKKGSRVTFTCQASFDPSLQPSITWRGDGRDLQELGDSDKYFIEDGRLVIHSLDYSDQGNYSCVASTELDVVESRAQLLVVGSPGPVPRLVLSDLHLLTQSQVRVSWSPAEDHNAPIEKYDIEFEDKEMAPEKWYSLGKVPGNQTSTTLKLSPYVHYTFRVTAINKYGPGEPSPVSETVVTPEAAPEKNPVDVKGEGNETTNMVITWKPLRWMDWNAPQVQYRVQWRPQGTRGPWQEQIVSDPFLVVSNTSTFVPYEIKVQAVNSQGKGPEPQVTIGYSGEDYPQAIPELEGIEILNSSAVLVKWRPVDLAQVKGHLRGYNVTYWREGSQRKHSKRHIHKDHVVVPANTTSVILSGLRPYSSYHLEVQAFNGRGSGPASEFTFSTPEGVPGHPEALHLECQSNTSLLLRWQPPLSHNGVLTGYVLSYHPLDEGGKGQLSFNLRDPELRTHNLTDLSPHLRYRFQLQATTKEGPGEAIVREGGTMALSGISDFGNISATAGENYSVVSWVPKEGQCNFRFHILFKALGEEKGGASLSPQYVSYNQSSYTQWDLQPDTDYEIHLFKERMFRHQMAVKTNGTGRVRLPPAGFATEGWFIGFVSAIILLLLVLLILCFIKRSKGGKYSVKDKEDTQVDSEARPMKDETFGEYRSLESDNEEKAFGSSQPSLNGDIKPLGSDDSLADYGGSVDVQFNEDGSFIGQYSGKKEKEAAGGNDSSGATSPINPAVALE
In assay [6] the target is T1, chick N-cadherin expressed on …. The source holds these as a separate data set.
Assay [7] has as its target N-cadherin expressed on transfected 3T3 cells (Examples 2 and 21).
Assay [8] concerns the target T1, chick N-cadherin expressed on …. The source holds these as a separate data set.
For assay [9] the target is unchanged. The source holds these as a separate data set.

With Ac-CHAVCS-NH2 (disulfide 1-5 (inferred)) [N-Ac-CHAVC-S-NH2], in assay [1], the “Percent Inhibition of N-cadherin dependent neurite outgrowth (peptide 250 µg/ml)” value (“Percent Inhibition” for short) is 6.9%. Further, the “EC50, decrease of electrical resistance across MDCK cell monolayer” value (from here on “EC50, decrease”) in [2] came out at 490 µM.

Ac-CFSHAVC-NH2 (disulfide 1-7 (inferred)) [N-Ac-CFSHAVC-NH2]: the “EC50, decrease” value in assay [3] came to 22 µM.

For the molecule Ac-CHAVCSS-NH2 (disulfide 1-5 (inferred)) [N-Ac-CHAVC-SS-NH2], in assay [1], the “Percent Inhibition” value was 37.8%. For the same molecule, the “EC50, decrease” value in [2] is 430 µM.

Consider Ac-CHAVDIC-NH2 (disulfide 1-7 (inferred)) [N-Ac-CHAVDIC-NH2], for which, in [4], the “% inhibition of neurite outgrowth (peptide 125 µg/mL)” value was found to be 88.3% and the “EC50 for inhibition of neurite outgrowth” value worked out at 60 µM. For the same molecule, the “% Inhibition of L1 Response (peptide 125 µg/ml)” value (“% Inhibition of L1 Response” below) in assay [5] was determined as 6%. In assay [6], the “% Inhibition of N-Cadherin Response (peptide 125 µg/ml)” value (shortened to “% Inhibition of N-Cadherin Response”) was determined as 88.3%.

B1: N-Ac-YCHAVC-NH2 (peptide)
peptide: Ac-YCHAVC-NH2
modifications: disulfide 2-6
SMILES: CC(=O)N[C@@H](Cc1ccc(O)cc1)C(=O)N[C@H]1CSSC[C@@H](C(N)=O)NC(=O)[C@H](C(C)C)NC(=O)[C@H](C)NC(=O)[C@H](Cc2c[nH]cn2)NC1=O
As to B1, in assay [1], the “Percent Inhibition” value came to 10.6%.

B2: N-Ac-CSHGVSSC-NH2 (peptide)
peptide: Ac-CSHGVSSC-NH2
modifications: disulfide 1-8
SMILES: CC(=O)N[C@H]1CSSC[C@@H](C(N)=O)NC(=O)[C@H](CO)NC(=O)[C@H](CO)NC(=O)[C@H](C(C)C)NC(=O)CNC(=O)[C@H](Cc2c[nH]cn2)NC(=O)[C@H](CO)NC1=O
Regarding B2, the “% Inhibition of neurite outgrowth, 250 µg/mL (rat neurons)” value (“% Inhibition … (rat neurons)” for short) in [7] was determined as 0%. Moreover, in [8], the “% inhibition of N-cadherin dependent neurite outgrowth (peptide 250 µg/mL)” value (from here on “% inhibition … (peptide 250 µg/mL)”) is -5.6%.

Take Ac-CHAVSSC-NH2 (disulfide 1-7 (inferred)) [N-Ac-CHAVSSC-NH2]: in assay [7], the “% Inhibition … (rat neurons)” value stood at 0%. For the same molecule, the “% inhibition … (peptide 250 µg/mL)” value in [8] was 34.4%.

B3: N-Ac-CSHAVSSC-NH2 (peptide)
peptide: Ac-CSHAVSSC-NH2
modifications: disulfide 1-8
SMILES: CC(=O)N[C@H]1CSSC[C@@H](C(N)=O)NC(=O)[C@H](CO)NC(=O)[C@H](CO)NC(=O)[C@H](C(C)C)NC(=O)[C@H](C)NC(=O)[C@H](Cc2c[nH]cn2)NC(=O)[C@H](CO)NC1=O
For the molecule B3, the “% Inhibition … (rat neurons)” value in assay [7] is 0%. Besides, in [8], the “% inhibition … (peptide 250 µg/mL)” value was -12.6%.

Consider Ac-CHAVDC-NH2 (disulfide 1-6 (inferred)) [N-Ac-CHAVDC-NH2], for which the “% Inhibition … (rat neurons)” value in assay [7] was 88%. For the same molecule, in [4], the “% inhibition of neurite outgrowth (peptide 125 µg/mL)” value is 77.1% and the “EC50 for inhibition of neurite outgrowth” value worked out at 93 µM. Further, the “% inhibition … (peptide 250 µg/mL)” value in assay [8] came out at 88.4%. Moreover, the “% Inhibition of L1 Response” value in assay [5] is 9.6%. Besides, the “% Inhibition of N-Cadherin Response” value in [6] was determined as 77.1%.

B4: N-Ac-S-CHAVC-NH2 (peptide)
peptide: Ac-SCHAVC-NH2
modifications: disulfide 2-6
SMILES: CC(=O)N[C@@H](CO)C(=O)N[C@H]1CSSC[C@@H](C(N)=O)NC(=O)[C@H](C(C)C)NC(=O)[C@H](C)NC(=O)[C@H](Cc2c[nH]cn2)NC1=O
Turning to B4, the “EC50, decrease” value in assay [2] turned out to be 490 µM.

Take Ac-CHAVDINGC-NH2 (disulfide 1-9 (inferred)) [N-Ac-CHAVDINGC-NH2]: the “% inhibition of neurite outgrowth (peptide 125 µg/mL)” value in assay [4] amounted to 1.5%.

B5: H-CAHAVDC-NH2 (peptide)
peptide: H-CAHAVDC-NH2
modifications: disulfide 1-7
SMILES: CC(C)[C@@H]1NC(=O)[C@H](C)NC(=O)[C@H](Cc2c[nH]cn2)NC(=O)[C@H](C)NC(=O)[C@@H](N)CSSC[C@@H](C(N)=O)NC(=O)[C@H](CC(=O)O)NC1=O
With B5, the “Percent Inhibition” value in [9] came to 1.3%. Moreover, the “% Inhibition … (rat neurons)” value in assay [7] came out at 0%. Besides, the “% inhibition … (peptide 250 µg/mL)” value in [8] was 1.3%.

For Ac-CHAVCT-NH2 (disulfide 1-5 (inferred)) [N-Ac-CHAVC-T-NH2], the “Percent Inhibition” value in assay [1] was determined as 23.7%. In addition, the “EC50, decrease” value in [2] stood at 480 µM.

B6: N-Ac-S-CHAVC-S-NH2 (peptide)
peptide: Ac-SCHAVCS-NH2
modifications: disulfide 2-6
SMILES: CC(=O)N[C@@H](CO)C(=O)N[C@H]1CSSC[C@@H](C(=O)N[C@@H](CO)C(N)=O)NC(=O)[C@H](C(C)C)NC(=O)[C@H](C)NC(=O)[C@H](Cc2c[nH]cn2)NC1=O
With B6, in assay [1], the “Percent Inhibition” value turned out to be 15.7%.

For H-CHAVC-NH2 (disulfide 1-5 (inferred)) [H-CHAVC-NH2], the “Percent Inhibition” value in [9] came out at 1.7%. Also, the “% Inhibition … (rat neurons)” value in assay [7] was 0%. Moreover, in assay [8], the “% inhibition … (peptide 250 µg/mL)” value stood at 1.7%.

For Ac-CHAVCE-NH2 (disulfide 1-5 (inferred)) [N-Ac-CHAVC-E-NH2], the “Percent Inhibition” value in [1] came out at 32.5%.

In the case of Ac-CHGVSSC-NH2 (disulfide 1-7 (inferred)) [N-Ac-CHGVSSC-NH2], the “% Inhibition … (rat neurons)” value in assay [7] was found to be 0%. Moreover, the “% inhibition … (peptide 250 µg/mL)” value in assay [8] was found to be 14.8%.

Turning to Ac-CHAVDINC-NH2 (disulfide 1-8 (inferred)) [N-Ac-CHAVDINC-NH2], in [4], the “% inhibition of neurite outgrowth (peptide 125 µg/mL)” value came to 62% and the “EC50 for inhibition of neurite outgrowth” value was found to be 70 µM. Also, in [5], the “% Inhibition of L1 Response” value was determined as 1.7%. Further, the “% Inhibition of N-Cadherin Response” value in assay [6] was 62%.

H-CAHAVDIC-NH2 (disulfide 1-8 (inferred)) [H-CAHAVDIC-NH2]: in [9], the “Percent Inhibition” value was -3.7%. Besides, the “% Inhibition … (rat neurons)” value in assay [7] was determined as 0%. Moreover, in assay [8], the “% inhibition … (peptide 250 µg/mL)” value was -3.7%.

On to Ac-CHAVCD-NH2 (disulfide 1-5 (inferred)) [N-Ac-CHAVC-D-NH2], for which, in [1], the “Percent Inhibition” value was determined as 3.3%. In addition, the “EC50, decrease” value in [2] came out at 470 µM.

Turning to Ac-CHAVPC-NH2 (disulfide 1-6 (inferred)) [N-Ac-CHAVPC-NH2], in assay [4], the “% inhibition of neurite outgrowth (peptide 125 µg/mL)” value amounted to 58% and the “EC50 for inhibition of neurite outgrowth” value came to 185 µM.
